Measurements: patent publication US11692025 (UNIVERSITY COURT OF THE UNIVERSITY OF ABERDEEN, dated 2023)
Changes are numbered by the printed parent chain.

Assays:
[1] = molecular target: T1, mouse serum albumin (mouse, UniProt P07724 25-608); assay: BIAcore, pH 7.4, monomeric 6xHis-tagged VNAR
T1 construct: also called MSA

[2] = molecular target: T2, rat serum albumin (rat, UniProt P02770 25-608); assay: BIAcore, pH 7.4, monomeric 6xHis-tagged VNAR
T2 construct: also called RSA

[3] = molecular target: T3, human serum albumin (human, UniProt P02768 25-609); assay: BIAcore, pH 7.4, monomeric 6xHis-tagged VNAR
T3 construct: also called HSA; HAS

[4] = molecular target: T1, mouse serum albumin; assay: BIAcore, pH 6.0, monomeric 6xHis-tagged VNAR
[5] = molecular target: T2, rat serum albumin; assay: BIAcore, pH 6.0, monomeric 6xHis-tagged VNAR
[6] = molecular target: T3, human serum albumin; assay: BIAcore, pH 6.0, monomeric 6xHis-tagged VNAR
[7] = molecular target: T3, human serum albumin; assay: phage display panning on HSA and screening
[8] = molecular target: T3, human serum albumin; assay: phage and periprep ELISA on HSA; purified 6xHis-tagged VNAR
Experimental: The resultant mutational phage display libraries were rescued and selected twice using Nunc Maxisorp immunotubes. Following each pan, two 96-well plates of individual colonies were picked with a QPix2 XT (Genetix, San Jose, Calif., USA). Binding as monoclonal phage and periprep was evaluated by ELISA. All samples were processed with a Perkin Elmer MiniTrak robotic liquid handling system (Waltham, Mass., USA).

T1 sequence (P07724 25-608 limits assumed): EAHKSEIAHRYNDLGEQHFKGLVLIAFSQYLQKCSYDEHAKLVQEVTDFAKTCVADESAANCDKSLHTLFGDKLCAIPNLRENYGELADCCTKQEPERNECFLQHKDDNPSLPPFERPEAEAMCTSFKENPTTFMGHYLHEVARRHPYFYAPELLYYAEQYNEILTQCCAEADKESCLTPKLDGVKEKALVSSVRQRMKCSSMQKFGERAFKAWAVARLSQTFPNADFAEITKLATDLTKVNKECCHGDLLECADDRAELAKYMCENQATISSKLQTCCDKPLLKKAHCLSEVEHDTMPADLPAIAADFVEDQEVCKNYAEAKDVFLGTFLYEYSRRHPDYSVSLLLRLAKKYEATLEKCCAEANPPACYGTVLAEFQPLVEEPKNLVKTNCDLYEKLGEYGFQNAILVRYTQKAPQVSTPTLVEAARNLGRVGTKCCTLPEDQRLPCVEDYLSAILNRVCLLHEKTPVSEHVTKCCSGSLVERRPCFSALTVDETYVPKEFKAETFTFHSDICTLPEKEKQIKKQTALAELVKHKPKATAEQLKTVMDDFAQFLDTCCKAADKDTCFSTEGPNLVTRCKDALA
T2 sequence (P02770 25-608 limits assumed): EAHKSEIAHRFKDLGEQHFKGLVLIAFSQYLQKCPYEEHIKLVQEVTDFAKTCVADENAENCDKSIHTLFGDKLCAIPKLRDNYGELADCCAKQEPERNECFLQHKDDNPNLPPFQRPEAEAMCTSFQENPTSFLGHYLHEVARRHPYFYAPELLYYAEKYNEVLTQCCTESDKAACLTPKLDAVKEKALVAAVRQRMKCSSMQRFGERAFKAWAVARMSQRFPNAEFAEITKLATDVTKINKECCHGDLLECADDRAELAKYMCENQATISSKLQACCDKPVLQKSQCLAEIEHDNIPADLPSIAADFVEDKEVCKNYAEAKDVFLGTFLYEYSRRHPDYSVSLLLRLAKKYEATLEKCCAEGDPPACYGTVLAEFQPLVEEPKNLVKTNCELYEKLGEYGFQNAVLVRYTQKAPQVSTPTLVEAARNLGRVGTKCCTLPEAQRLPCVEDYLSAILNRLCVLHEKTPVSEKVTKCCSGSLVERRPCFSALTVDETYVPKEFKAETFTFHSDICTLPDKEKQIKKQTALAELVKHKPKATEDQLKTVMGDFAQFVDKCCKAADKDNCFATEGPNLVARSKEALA

B1: huE06 v1.1 (VNAR)
VNAR: TRVDQSPSSLSASVGDRVTITCVLTDTSYPLYSTYWYQQKPGSSNKEQISISGRYSESVNKGTKSFTLTISSLQPEDFATYYCRAMGTNIWTGDGAGTKVEIK
notes: Humanized VNAR, tested as monomeric 6xHis-tagged protein; also called humanized E06 v1.1; not shown: 6xHis tag
Which results are given for B1?
Fold change from E06 [1]: 59.4 fold; Kd [1]: 49.2 nM; koff [1]: 0.0414 s⁻¹; kon [1]: 841000 M⁻¹ s⁻¹; Fold change from E06 [2]: 52 fold; Kd [2]: 75.3 nM; koff [2]: 0.0329 s⁻¹; kon [2]: 436000 M⁻¹ s⁻¹; Fold change from E06 [3]: 84.9 fold; Kd [3]: 16 nM; koff [3]: 0.014 s⁻¹; kon [3]: 872000 M⁻¹ s⁻¹; Fold change from E06 [4]: 28.3 fold; Kd [4]: 9.28 nM; koff [4]: 0.0318 s⁻¹; kon [4]: 3.43e+06 M⁻¹ s⁻¹; Fold change from E06 [5]: 29 fold; Kd [5]: 9.94 nM; koff [5]: 0.031 s⁻¹; kon [5]: 3.12e+06 M⁻¹ s⁻¹; Fold change from E06 [6]: 35.6 fold; Kd [6]: 5.07 nM; koff [6]: 0.0184 s⁻¹; kon [6]: 3.62e+06 M⁻¹ s⁻¹

B2: SEQ ID NO 42 (VNAR)
VNAR: TRVDQTPRTATKETGESLTINCVLTDTSYPLYRTYWYRKNPGSSNKEQISISGRYVESVNKGTKSFSLRIKDLTVADSATYICRAMGTNSWTGDGAGTVLTVN
notes: clone name not tied to this number
Does B2 bind [7]?
Result: binds

B3: SEQ ID NO 43 (VNAR)
VNAR: B2 VNAR with R33S, Q48R, N89D, V99A
notes: as for B2
Does B3 bind [7]?
Result: binds

B4: SEQ ID NO 44 (VNAR)
VNAR: B2 VNAR with R33S, Q48R, S90I
notes: as for B2
Does B4 bind [7]?
Result: binds

B5: SEQ ID NO 48 (VNAR)
VNAR: B2 VNAR with T1A, R2S, D4N, R33S, G87D, N89S, S90A, W91G, T92V, G93V
notes: as for B2
Does B5 bind [7]?
Result: binds

B6: SEQ ID NO 49 (VNAR)
VNAR: B2 VNAR with T1A, R2K, R33S, N89D
notes: as for B2
Does B6 bind [7]?
Result: binds

B7: SEQ ID NO 50 (VNAR)
VNAR: B2 VNAR with T1A, R2S, D4N, R33S, Q48R, N89D
notes: as for B2
Does B7 bind [7]?
Result: binds

B8: huE06 v1.10 (VNAR)
VNAR: B1 VNAR with Q38R, Q39K, K40N
notes: Humanized VNAR, tested as monomeric 6xHis-tagged protein; also called hE06v1.10; humanized E06 v1.10; not shown: 6xHis tag
Which “Fold change from E06” value [1] does the source give for B8 here?
The value was 28.1 fold.

What about the Kd [1] of the same binder?
Its Kd is 23.2 nM.

And the koff [1]?
The koff was 0.00959 s⁻¹.

And the kon [1]?
The kon was 412000 M⁻¹ s⁻¹.

And the “Fold change from E06” value [2]?
Its value is 25.4 fold.

And the Kd [2]?
Its Kd is 36.8 nM.

What about the koff [2] of the same binder?
The koff was 0.0165 s⁻¹.

What about the kon [2] of the same binder?
Its kon is 449000 M⁻¹ s⁻¹.

What about the “Fold change from E06” value [3] of the same binder?
Its value is 33.9 fold.

And the Kd [3]?
The Kd was 6.4 nM.

What about the koff [3] of the same binder?
Its koff is 0.00357 s⁻¹.

And the kon [3]?
Its kon is 559000 M⁻¹ s⁻¹.

What about the “Fold change from E06” value [4] of the same binder?
The value was 12.2 fold.

What about the Kd [4] of the same binder?
The Kd was 3.98 nM.

What about the koff [4] of the same binder?
Its koff is 0.0125 s⁻¹.

And the kon [4]?
Its kon is 3.14e+06 M⁻¹ s⁻¹.

And the “Fold change from E06” value [5]?
Its value is 12.2 fold.

What about the Kd [5] of the same binder?
The Kd was 4.17 nM.

And the koff [5]?
The koff was 0.0152 s⁻¹.

What about the kon [5] of the same binder?
The kon was 3.65e+06 M⁻¹ s⁻¹.

And the “Fold change from E06” value [6]?
The value was 12.7 fold.

And the Kd [6]?
Its Kd is 1.81 nM.

What about the koff [6] of the same binder?
The koff was 0.00637 s⁻¹.

And the kon [6]?
The kon was 3.52e+06 M⁻¹ s⁻¹.

B9: AC9 (VNAR)
VNAR: B1 VNAR with Q38R, Q39K, K40N, F66S
notes: Variant of huE06 v1.10 from error-prone PCR
Does B9 bind [8]?
Result: binds

B10: AD4 (VNAR)
VNAR: B1 VNAR with Q38R, Q39K, K40N, I51M, G62S
notes: as for B9
Does B10 bind [8]?
Result: binds

B11: AG11 (VNAR)
chain: B1 VNAR with Q38R, Q39K, K40N, I102T
notes: as for B9
Does B11 bind [8]?
Result: binds

B12: AH7 (VNAR)
VNAR: B1 VNAR with S6T, Q38R, Q39K, K40N, F66S
notes: as for B9
Does B12 bind [8]?
Result: binds

B13: BA11 (VNAR)
VNAR: B1 VNAR with Q38R, Q39K, K40N, F78S, G87S
notes: as for B9
Does B13 bind [8]?
Result: binds

B14: BB10 (VNAR)
VNAR: B1 VNAR with Q38R, Q39K, K40N, I90F
notes: as for B9
Does B14 bind [8]?
Result: binds

B15: BB11 (VNAR)
VNAR: B1 VNAR with Q38R, Q39K, K40N, G87A
notes: as for B9
Does B15 bind [8]?
Result: binds

B16: BC3 (VNAR)
VNAR: B1 VNAR with Q38R, Q39K, K40N, S44N
notes: as for B9
Does B16 bind [8]?
Result: binds
